Source: patent US20240301086A1 (APTEVO RESEARCH AND DEVELOPMENT, published 2024)
Numbering of substitutions follows the chain as printed.

T1: human Fcγ receptor IIB/C (human, UniProt P31994 46-217)
T1 sequence (looked up): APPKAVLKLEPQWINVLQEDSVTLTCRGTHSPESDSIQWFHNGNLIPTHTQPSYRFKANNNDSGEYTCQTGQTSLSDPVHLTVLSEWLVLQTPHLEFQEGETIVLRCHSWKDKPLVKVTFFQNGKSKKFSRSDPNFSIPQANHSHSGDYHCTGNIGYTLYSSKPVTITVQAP

T2: human Fcγ receptor IIA, R167 variant (human, UniProt P12318 36-218)
T2 construct: also called Type IIA R167
T2 sequence (looked up): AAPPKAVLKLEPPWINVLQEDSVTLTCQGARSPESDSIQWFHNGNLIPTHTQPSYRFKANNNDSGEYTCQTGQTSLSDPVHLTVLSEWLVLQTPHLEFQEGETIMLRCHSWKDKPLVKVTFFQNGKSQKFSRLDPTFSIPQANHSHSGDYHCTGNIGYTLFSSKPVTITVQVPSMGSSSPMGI

T3: human Fcγ receptor IIA, H167 variant (human, UniProt P12318 36-218)
T3 sequence (looked up): T2 sequence (looked up) with R132H

B1: TSC266 Anti PSMA scFv x Anti CD3 scFv ADAPTIR (bispecific antibody)
chain: DIQMTQSPSAMSASVGDRVTITCRASKSISKYLAWFQQKPGKVPKLRIHSGSTLQSGVPSRFSGSGSGTEFTLTISSLQPEDFATYYCQQHIEYPWTFGQGTKVEIKRGGGGSGGGGSGGGGSQVQLVQSGAEVKKPGASVKVSCKASGYTFTDYYMHWVRQAPGQGLEWMGYFNPYNDYTRYAQKFQGRVTMTRDTSISTAYMELSSLRSDDTAVYYCARSDGYYDAMDYWGQGTTVTVSSSEPKSSDKTHTCPPCPAPEAAGAPSVFLFPPKPKDTLMISRTPEVTCVVVDVSHEDPEVKFNWYVDGVEVHNAKTKPREEQYNSTYRVVSVLTVLHQDWLNGKAYACAVSNKALPAPIEKTISKAKGQPREPQVYTLPPSRDELTKNQVSLTCLVKGFYPSDIAVEWESNGQPENNYKTTPPVLDSDGSFFLYSKLTVDKSRWQQGNVFSCSVMHEALHNHYTQKSLSLSPGQRHNNSSLNTGTQMAGHSPNSQVQLVESGGGVVQPGRSLRLSCKASGYTFTRSTMHWVRQAPGQGLEWIGYINPSSAYTNYNQKFKDRFTISADKSKSTAFLQMDSLRPEDTGVYFCARPQVHYDYNGFPYWGQGTPVTVSSGGGGSGGGGSGGGGSAQDIQMTQSPSSLSASVGDRVTMTCSASSSVSYMNWYQQKPGKAPKRWIYDSSKLASGVPARFSGSGSGTDYTLTISSLQPEDFATYYCQQWSRNPPTFGGGTKLQITSSS
notes: The anti-PSMA domain is that of PSMA01012 and the anti-CD3 domain is DRA222; also called unoptimized parent construct; TSC266 control (PSMA × CD3 bispecific protein)
B2: PSMA01107 Anti-PSMA scFv x Fc x linker x Anti CD3 scFv; Anti PSMA scFv x Fc (bispecific antibody)
chain 1: QVQLVQSGAEVKKPGASVKVSCKASGYTFTDYYMHWVRQAPGQGLEWMGYFNPYNDYTRYAQKFQGRVTMTRDTSTSTVYMELSSLRSEDTAVYYCARSDGYYDAMDYWGQGTTVTVSSGGGGSGGGGSGGGGSGGGGSDIQMTQSPSSLSASVGDRVTITCRASKSISKYLAWYQQKPGKAPKLLIHSGSSLESGVPSRFSGSGSGTEFTLTISSLQPDDFATYYCQQHIEYPWTFGQGTKVEIKEPKSSDKTHTCPPCPAPPAAAPSVFLFPPKPKDTLMISRTPEVTCVVVDVSHEDPEVKFNWYVDGVEVHNAKTKPREEQYNSTYRVVSVLTVLHQDWLNGKEYKCAVSNKALPAPIEKTISKAKGQPREPQVYTLPPSRDELTKNQVSLWCLVKGFYPSDIAVEWESNGQPENNYKTTPPVLDSDGSFFLYSKLTVDKSRWQQGNVFSCSVMHEALHNHYTQKSLSLSPGGGGSPSQVQLVQSGAEVKKPGASVKVSCKASGYTFTRSTMHWVRQAPGQGLEWIGYINPSSAYTNYAQKFQGRVTLTADKSTSTAYMELSSLRSEDTAVYYCASPQVHYDYNGFPYWGQGTLVTVSSGGGGSGGGGSGGGGSGGGGSDIQMTQSPSSLSASVGDRVTITCRASSSVSYMNWYQQKPGKAPKRWIYDSSKLASGVPSRFSGSGSGTDFTLTISSLQPEDFATYYCQQWSRNPPTFGQGTKVEIKRS
chain 2: QVQLVQSGAEVKKPGASVKVSCKASGYTFTDYYMHWVRQAPGQGLEWMGYFNPYNDYTRYAQKFQGRVTMTRDTSTSTVYMELSSLRSEDTAVYYCARSDGYYDAMDYWGQGTTVTVSSGGGGSGGGGSGGGGSGGGGSDIQMTQSPSSLSASVGDRVTITCRASKSISKYLAWYQQKPGKAPKLLIHSGSSLESGVPSRFSGSGSGTEFTLTISSLQPDDFATYYCQQHIEYPWTFGQGTKVEIKEPKSSDKTHTCPPCPAPPAAAPSVFLFPPKPKDTLMISRTPEVTCVVVDVSHEDPEVKFNWYVDGVEVHNAKTKPREEQYNSTYRVVSVLTVLHQDWLNGKEYKCAVSNKALPAPIEKTISKAKGQPREPQVYTLPPSRDELTKNQVSLSCAVKGFYPSDIAVEWESNGQPENNYKTTPPVLDSDGSFFLVSKLTVDKSRWQQGNVFSCSVMHEALHNHYTQKSLSLSPG
notes: Heterodimer, bivalent for PSMA and monovalent for CD3 (VH-VL scFv at the C-terminus); also called PSMA1107
B3: PSMA01108 Anti-PSMA scFv x Fc x linker x Anti CD3 scFv; Anti PSMA scFv x Fc (bispecific antibody)
chain 1: QVQLVQSGAEVKKPGASVKVSCKASGYTFTDYYMHWVRQAPGQGLEWMGYFNPYNDYTRYAQKFQGRVTMTRDTSTSTVYMELSSLRSEDTAVYYCARSDGYYDAMDYWGQGTTVTVSSGGGGSGGGGSGGGGSGGGGSDIQMTQSPSSLSASVGDRVTITCRASKSISKYLAWYQQKPGKAPKLLIHSGSSLESGVPSRFSGSGSGTEFTLTISSLQPDDFATYYCQQHIEYPWTFGQGTKVEIKEPKSSDKTHTCPPCPAPPAAAPSVFLFPPKPKDTLMISRTPEVTCVVVDVSHEDPEVKFNWYVDGVEVHNAKTKPREEQYNSTYRVVSVLTVLHQDWLNGKEYKCAVSNKALPAPIEKTISKAKGQPREPQVYTLPPSRDELTKNQVSLWCLVKGFYPSDIAVEWESNGQPENNYKTTPPVLDSDGSFFLYSKLTVDKSRWQQGNVFSCSVMHEALHNHYTQKSLSLSPGGGGSPSDIQMTQSPSSLSASVGDRVTITCRASSSVSYMNWYQQKPGKAPKRWIYDSSKLASGVPSRFSGSGSGTDFTLTISSLQPEDFATYYCQQWSRNPPTFGQGTKVEIKGGGGSGGGGSGGGGSGGGGSQVQLVQSGAEVKKPGASVKVSCKASGYTFTRSTMHWVRQAPGQGLEWIGYINPSSAYTNYAQKFQGRVTLTADKSTSTAYMELSSLRSEDTAVYYCASPQVHYDYNGFPYWGQGTLVTVSS
chain 2: B2 chain 2
notes: also called PSMA1108; PSAM01108

What was measured:
human Fcγ receptor IIB/C [1] = molecular target: T1, human Fcγ receptor IIB/C; assay: SPR (Biacore T200), construct amine-coupled, Fcγ receptor titrated 375-6000 nM, 1:1 fit
Procedure: (§1) The Fc region incorporated into anti-PSMA bispecific constructs contained mutations intended to reduce or abolish binding to common human and cynomolgus Fc gamma receptors. SPR experiments were conducted at 25° C. in HBS-EP+ with 0.2% BSA buffer on a Biacore T200 system to evaluate the impact of these mutations on binding. For these experiments, three flow cells of a CM5 sensor chip were immobilized with anti-PSMA bispecifics by standard amine coupling to a response level of ˜2000 RU. A blank immobilization was performed on flow cell #1 for purposes of background signal subtraction. Both human and cynomolgus monkey Fcγ receptors (purchased from R&D Systems) were diluted in HBS-EP+ with 0.2% BSA to 4-6 μM and then flowed as analytes at 30 μL/min for 120 seconds followed by a 240 second dissociation step. No regeneration step was required. Blank-subtracted sensorgrams were visually inspected for binding to each of the Fcγ receptor proteins. […] Attenuated binding to Fcγ receptors IIA (both polymorphic variants) and IIB/C was observed. PSMA01107 and PSMA01108 share the same Fc amino acid sequence and therefore equivalent Fcγ receptor binding behavior was expected.
TSC266 (PSMA×CD3 bispecific antibody) and another protein containing a wild-type IgG1 Fc sequence were also analyzed for comparison. Sensorgrams obtained from kinetic SPR measurements were analyzed by the double subtraction method in the Biacore T200 evaluation software. Kinetic parameters were derived from a one-to-one binding fit model and reported below in Table 8. Both TSC266 and PSMA01107 show reduced binding compared to a wild type IgG1 Fc.

mIgG Fc-human PSMA ECD = molecular target: T4, mIgG Fc-human PSMA ECD (human); assay: SPR (Biacore T200), bispecific amine-coupled, mFc-PSMA dimer 1-81 nM as analyte, 1:1 fit
T4 construct: Called PSMA dimer in the SPR method; also called mFc-Hu PSMA ECD; murine Fc-tagged human PSMA ECD
Procedure: SPR studies were performed on a subset of bispecific constructs binding to Human and cynomolgus primate PSMA ectodomain (ECD) fused to the c-terminus of a murine IgG1 Fc region. These experiments were conducted at 25° C. in dPBS (Gibco, 14040-133) with 0.2% BSA buffer on a Biacore T200 system. Bispecific constructs were immobilized at a density of ˜2,000-4,000 response units (RU) onto individual flow cells of a CM5 research-grade sensor chip (GE) by standard amine coupling chemistry, leaving one flow cell surface unmodified as the reference. Using a multi-cycle kinetics mode, a buffer blank and […] different concentrations of the PSMA dimer ranging from 1 nM to 81 nM in dPBS with 0.2% BSA were sequentially injected through each flow cell at 30 μL/min for 300 seconds followed by a 600 second dissociation phase. Regeneration was achieved by injection of 10 mM glycine pH 2.0 at a flow rate of 30 μL/min for 40 seconds followed by dPBS with 0.2% BSA buffer stabilization for 1 min.
Sensorgrams obtained from kinetic SPR measurements were analyzed by the double subtraction method. The signal from the reference flow cell was subtracted from the analyte binding response obtained from flow cells with captured ligands. The buffer blank response was then subtracted from analyte binding responses and the final double-referenced data were analyzed with Biacore T200 Evaluation software (2.0, GE), globally fitting data to derive kinetic parameters. All sensorgrams were fitted using a simple one-to-one binding model.

[2] = molecular target: T5, recombinant human FcRn/b2M complex (human, UniProt P55899 24-297; P61769 21-119, limits assumed); assay: SPR at pH 6.0, hFcRn/b2M amine-coupled, construct 1-81 nM as analyte, two-state reaction model fit
T5 construct: also called hFcRn/b2M; neonatal Fc receptor
T5 sequence (P55899 24-297 limits assumed, chain 1 of 2): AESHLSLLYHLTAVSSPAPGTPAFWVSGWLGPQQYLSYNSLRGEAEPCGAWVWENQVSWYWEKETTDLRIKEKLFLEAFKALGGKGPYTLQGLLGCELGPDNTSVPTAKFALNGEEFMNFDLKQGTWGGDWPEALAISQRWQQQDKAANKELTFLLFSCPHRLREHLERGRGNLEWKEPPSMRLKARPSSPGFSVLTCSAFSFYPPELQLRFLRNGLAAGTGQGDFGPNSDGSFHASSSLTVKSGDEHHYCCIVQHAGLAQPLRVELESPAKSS
T5 sequence (P61769 21-119 limits assumed, chain 2 of 2): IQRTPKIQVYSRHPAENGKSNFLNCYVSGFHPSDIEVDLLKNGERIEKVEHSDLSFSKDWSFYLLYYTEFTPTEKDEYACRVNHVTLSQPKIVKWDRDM
Procedure: Recombinant FcRn/b2M protein was generated via transient transfection of HEK-293 cells with a bi-cistronic vector containing the genes for both FcRn and […]. The complex was purified using IMAC chromatography and subsequently buffer exchanged into PBS buffer after verifying purity of the IMAC eluate by analytical SEC. Purified hFcRn/b2M at 5 μg/ml in 10 mM sodium acetate (pH 5.0) was immobilized on a CM5 chip by direct amine coupling chemistry to a level of ˜400 RU. A reference flow cell was left blank.
Different concentrations of the Fc variant protein (1-81 nM by 3-fold dilutions in HBS-EP+ with 0.2% BSA running buffer at pH 6.0) including running buffer as blank were injected in randomized order at 30 μL/min for 180 seconds followed by a 180 second dissociation period. Optimal regeneration was achieved by two injections of HBS-EP+ with 0.2% BSA at pH 7.5 at a flow rate of […] for 30 seconds followed by running buffer stabilization for 1 minute.
Sensorgrams obtained from kinetic SPR measurements were analyzed by the double subtraction method. […] Buffer reference was subtracted from analyte binding responses, and the final double-referenced data were analyzed with Biacore T200 Evaluation software (2.0, GE), globally fitting data to derive kinetic parameters. […]

[3] = molecular target: T2, human Fcγ receptor IIA, R167 variant; assay: SPR (Biacore T200), construct amine-coupled, Fcγ receptor at 4-6 µM as analyte
Procedure: as §1

[4] = molecular target: T3, human Fcγ receptor IIA, H167 variant; assay: as above
Procedure: as §1

human Fcγ receptor IIB/C [5] = molecular target: T1, human Fcγ receptor IIB/C; assay: as above
Procedure: as §1

Binder | Kd (human Fcγ receptor IIB/C [1]) [nM] | Kd (mIgG Fc-human PSMA ECD) [nM] | Kd [2] [nM] | binding result [3] | binding result [4] | binding result (human Fcγ receptor IIB/C [5])
B1 | 2700 |  |  |  |  | 
B2 | 6500 | 3 | 47 |  |  | 
B3 |  |  | 19 | binds | binds | binds
